Results taken from patent US11130803B2, “Isoform-selective TGFβ1 inhibitors and use thereof” (Scholar Rock, Inc., priority 2018, dated 2021).
Like-named read-outs stand apart in the source and are kept apart here.

Key:
[1] = system: matrix-associated (LTBP1/LTBP3) and cell-associated (GARP/LRRC33) proTGFβ1 complexes; assay: Octet: average KD and fold bias, matrix- vs cell-associated complexes; type: binding, human; conditions: for Kd: average KD of (E) and (F), cell-associated complexes, read-out: (G) Cell AVRG; for (H) G/D (fold bias): ratio of average KD cell-associated / matrix-associated
From the text: Column (A) of the table lists monoclonal antibodies with discrete amino acid sequences. […] Columns (B), (D), (E) and (F) provide affinities of each of the listed antibodies, measured in KD. […] Average KD values of (B) and (C) are shown in the corresponding column (D), which collectively represents affinities of the antibodies to ECM- or matrix-associated proTGFβ1 complexes. Similarly, Average KD values of (E) and (F) are shown in the corresponding column (G), which collectively represents affinities of the antibodies to cell-surface or cell-associated proTGFβ1 complexes. Finally, relative ratios between the average KD values from columns (D) and (G) are expressed as “fold bias” in column (H). […] This is one way of quantitatively representing and comparing inherent bias of antibodies to their target complexes.
Average KD values between the two matrix-associated and cell-associated complexes are calculated, respectively (see columns (D) and (G)). These average KD values can then be used to ask whether bias in binding activities exists between complexes associated with matrix vs. complexes associated with cell surface (e.g., immune cells). Bias may be expressed as “fold-difference” in the average KD values, as illustrated in Table 8.

[2] = system: matrix-associated (LTBP1/LTBP3) and cell-associated (GARP/LRRC33) proTGFβ1 complexes; assay: as above; type: binding, human; conditions: average KD of (B) and (C), read-out: (D) ECM AVRG
[3] = target: T1, recombinant human LTBP3-proTGFβ1 complex (Homo sapiens, UniProt P01137); assay: Octet (Biolayer Interferometry) in vitro kinetic binding; conditions: in M
T1 construct: made in house; host or cells: Expi293F cells, transient co-transfection
From the text: (§1) Biolayer Interferometry (BLI):BLI is a label-free technology for optically measuring biomolecular interactions, e.g., between a ligand immobilized on the biosensor tip surface and an analyte in solution. BLI provides the ability to monitor binding specificity, rates of association and dissociation, or concentration, with precision and accuracy. BLI platform instruments are commercially available, for example, from ForteBio and are commonly referred to as the Octet® System.
(§2) BLI-based binding assays are widely used in the art for measuring affinities and kinetics of antibodies to antigens. It is a label-free technology in which biomolecular interactions are analyzed on the basis of optical interference. One of the proteins, for example, an antibody being tested, can be immobilized on the biosensor tip. When the other protein in solution, for example, an antigen, becomes bound to the immobilized antibody, it causes a shift in the interference pattern, which can be measured in real-time. This allows the monitoring of binding specificity, rates of association and dissociation, as well as concentration dependency. […] Due to its ease of use and fast results, BLI-based assays such as the Octet® system (available from ForteBio/Molecular Devices, Fremont Calif.), are particularly convenient when used as an initial screening method to identify and separate a pool of “binders” from a pool of “non-binders” or “weak binders” in the screening process.
(§3) Table 8 below provides non-limiting examples of high-affinity, context-independent proTGFβ1 antibodies encompassed by the present invention. The table provides representative results from in vitro binding assays, as measured by Octet®.
(§4) Column (A) of the table lists monoclonal antibodies with discrete amino acid sequences. […] Columns (B), (D), (E) and (F) provide affinities of each of the listed antibodies, measured in KD. […] Average KD values of (B) and (C) are shown in the corresponding column (D), which collectively represents affinities of the antibodies to ECM- or matrix-associated proTGFβ1 complexes. Similarly, Average KD values of (E) and (F) are shown in the corresponding column (G), which collectively represents affinities of the antibodies to cell-surface or cell-associated proTGFβ1 complexes. Finally, relative ratios between the average KD values from columns (D) and (G) are expressed as “fold bias” in column (H). Thus, the greater the number of column (H) is, the greater bias exists for the particular antibody, when comparing binding preferences of the antibody for matrix-associated complexes and cell-surface complexes. This is one way of quantitatively representing and comparing inherent bias of antibodies to their target complexes. Such analyses may be useful in guiding the selection process for a candidate antibody for particular therapeutic use.
(§5) In some embodiments, the binding affinity of an antibody, or antigen binding portion thereof, to an antigen (e.g., protein complex), such as presenting molecule-proTGFβ1 complexes, is determined using an Octet assay. In some embodiments, an Octet assay is an assay that determines one or more a kinetic parameters indicative of binding between an antibody and antigen. In some embodiments, an Octet® system (ForteBio, Menlo Park, Calif.) is used to determine the binding affinity of an antibody, or antigen binding portion thereof, to presenting molecule-proTGFβ1 complexes. For example, binding affinities of antibodies may be determined using the fortéBio Octet QKe dip and read label free assay system utilizing bio-layer interferometry. In some embodiments, antigens are immobilized to biosensors (e.g., streptavidin-coated biosensors) and the antibodies and complexes (e.g., biotinylated presenting molecule-proTGFβ1 complexes) are presented in solution at high concentration ([…]) to measure binding interactions. […]

[4] = target: T2, recombinant human LRRC33-proTGFβ1 complex (Homo sapiens, UniProt P01137); assay: as above; conditions: in M
T2 construct: made in house
From the text: as §1, §2, §3, §4, §5

[5] = target: T3, recombinant human GARP-proTGFβ1 complex (Homo sapiens, UniProt P01137); assay: as above; conditions: in M
T3 construct: made in house
From the text: as §1, §2, §3, §4, §5

[6] = target: T4, recombinant human LTBP1-proTGFβ1 complex (Homo sapiens, UniProt P01137); assay: as above; conditions: in M
T4 construct: made in house; host or cells: Expi293F cells, transient co-transfection
From the text: as §1, §2, §3, §4, §5

T3 sequence (P01137 30-390): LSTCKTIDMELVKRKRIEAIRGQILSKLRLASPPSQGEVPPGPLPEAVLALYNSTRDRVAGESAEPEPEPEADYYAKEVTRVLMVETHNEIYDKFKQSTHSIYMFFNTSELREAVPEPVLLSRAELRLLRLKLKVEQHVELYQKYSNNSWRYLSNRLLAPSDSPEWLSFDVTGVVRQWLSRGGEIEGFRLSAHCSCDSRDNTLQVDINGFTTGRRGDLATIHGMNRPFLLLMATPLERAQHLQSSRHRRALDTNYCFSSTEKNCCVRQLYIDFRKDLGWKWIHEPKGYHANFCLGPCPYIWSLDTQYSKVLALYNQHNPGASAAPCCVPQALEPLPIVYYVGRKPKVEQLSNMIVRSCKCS
T3 sequence (Q14392 20-627 partner limits assumed): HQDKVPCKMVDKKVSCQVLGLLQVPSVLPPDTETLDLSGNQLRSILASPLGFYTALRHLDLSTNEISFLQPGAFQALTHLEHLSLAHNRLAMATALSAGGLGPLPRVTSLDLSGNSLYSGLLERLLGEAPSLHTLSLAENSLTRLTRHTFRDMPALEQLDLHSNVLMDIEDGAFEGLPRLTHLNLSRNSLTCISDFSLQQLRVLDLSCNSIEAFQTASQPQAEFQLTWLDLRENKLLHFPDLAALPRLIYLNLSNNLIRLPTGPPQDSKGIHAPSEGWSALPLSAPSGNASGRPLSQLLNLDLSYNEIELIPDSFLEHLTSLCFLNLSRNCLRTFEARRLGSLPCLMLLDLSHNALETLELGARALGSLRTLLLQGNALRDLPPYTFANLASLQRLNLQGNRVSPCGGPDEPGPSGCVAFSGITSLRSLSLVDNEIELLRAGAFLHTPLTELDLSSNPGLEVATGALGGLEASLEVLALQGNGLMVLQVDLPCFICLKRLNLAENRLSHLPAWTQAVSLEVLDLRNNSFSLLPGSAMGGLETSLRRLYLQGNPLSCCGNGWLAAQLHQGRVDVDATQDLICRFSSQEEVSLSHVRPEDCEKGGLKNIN
T2 sequence (P01137 30-390): as the sequence (P01137 30-390) above
T2 sequence (Q86YC3 19-650 partner limits assumed): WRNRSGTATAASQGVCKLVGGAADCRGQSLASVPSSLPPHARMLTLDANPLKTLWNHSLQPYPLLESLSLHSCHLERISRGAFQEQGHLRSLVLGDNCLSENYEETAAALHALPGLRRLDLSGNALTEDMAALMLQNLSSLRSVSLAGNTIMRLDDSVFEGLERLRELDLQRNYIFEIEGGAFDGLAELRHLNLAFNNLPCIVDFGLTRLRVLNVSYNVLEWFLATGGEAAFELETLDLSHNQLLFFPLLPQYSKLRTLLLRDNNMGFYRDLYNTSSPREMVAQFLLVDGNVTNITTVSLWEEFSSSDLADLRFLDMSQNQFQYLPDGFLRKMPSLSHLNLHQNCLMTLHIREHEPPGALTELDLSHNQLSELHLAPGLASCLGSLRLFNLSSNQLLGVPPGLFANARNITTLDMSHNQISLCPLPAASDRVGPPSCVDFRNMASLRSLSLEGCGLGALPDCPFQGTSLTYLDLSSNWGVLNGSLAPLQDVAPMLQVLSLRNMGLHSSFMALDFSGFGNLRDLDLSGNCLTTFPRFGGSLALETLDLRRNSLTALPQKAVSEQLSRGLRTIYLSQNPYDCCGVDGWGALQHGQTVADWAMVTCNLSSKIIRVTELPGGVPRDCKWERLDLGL
T4 sequence (P01137 30-390): as the sequence (P01137 30-390) above
T4 sequence (Q14766 873-1507 partner): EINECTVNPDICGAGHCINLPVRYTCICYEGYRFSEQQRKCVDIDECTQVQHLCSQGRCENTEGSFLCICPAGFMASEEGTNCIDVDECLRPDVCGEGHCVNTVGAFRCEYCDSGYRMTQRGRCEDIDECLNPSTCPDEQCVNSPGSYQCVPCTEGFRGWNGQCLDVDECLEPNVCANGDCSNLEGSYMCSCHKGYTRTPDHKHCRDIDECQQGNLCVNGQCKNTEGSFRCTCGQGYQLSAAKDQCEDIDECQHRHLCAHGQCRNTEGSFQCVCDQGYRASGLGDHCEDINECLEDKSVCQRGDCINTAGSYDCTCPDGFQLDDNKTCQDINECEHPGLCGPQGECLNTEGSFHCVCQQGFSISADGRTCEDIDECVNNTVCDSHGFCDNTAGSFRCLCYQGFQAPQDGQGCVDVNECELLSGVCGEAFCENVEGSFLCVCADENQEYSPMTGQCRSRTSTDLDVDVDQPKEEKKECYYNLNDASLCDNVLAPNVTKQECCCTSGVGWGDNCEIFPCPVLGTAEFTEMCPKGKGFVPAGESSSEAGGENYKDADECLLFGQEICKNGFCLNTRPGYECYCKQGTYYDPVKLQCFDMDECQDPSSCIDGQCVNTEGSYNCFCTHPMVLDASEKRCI
T1 sequence (P01137 30-390): as the sequence (P01137 30-390) above
T1 sequence (Q9NS15 866-1039 partner limits assumed): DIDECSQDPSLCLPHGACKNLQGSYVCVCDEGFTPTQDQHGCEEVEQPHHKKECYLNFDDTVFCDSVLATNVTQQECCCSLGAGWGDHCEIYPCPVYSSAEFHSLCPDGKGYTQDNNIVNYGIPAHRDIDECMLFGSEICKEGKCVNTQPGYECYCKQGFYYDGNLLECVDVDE

Row | (C) hLTBP3, Matrix-associated proTGFb1 (KD) [3] | (F) hLRRC33, Cell-associated proTGFb1 (KD) [4] | (E) hGARP, Cell-associated proTGFb1 (KD) [5] | (B) hLTBP1, Matrix-associated proTGFb1 (KD) [6] | Molecule | Kd [1] [nM] | (H) G/D (fold bias) [1] [fold] | Kd [2] [nM]
1 | 2.49E−10 | 1.40E−09 | 1.00E−08 | 2.76E−10 | Ab13: monoclonal antibody; VH SEQ ID NO: 242, VL SEQ ID NO: 243 (antibody, V domains shown) VH: EVQLLESGGGLVQPGGSLRLSCAASGFTFADYAMTWVRQAPGKGLEWVSAISSFASAIYYADSVKGRFTISRDNSKNTLYLQMNSLRAEDTAVYYCARVSSGHWDFDYWGQGTLVTVSS VL: DIQMTQSPSSLSASVGDRVTITCRASQSISSYLNWYQQKPGKAPKLLIYAASSLQSGVPSRFSGSGSGTDFTLTISSLQPEDFATYYCQQVYDPPLTFGGGTKVEIK | 5.7 | 21.71 | 0.263
2 | 3.46E−10 | 1.34E−09 | 1.05E−08 | 3.36E−10 | Ab14: monoclonal antibody; VH SEQ ID NO: 244, VL SEQ ID NO: 243 (antibody, V domains shown) VH: EVQLLESGGGLVQPGGSLRLSCAASGFTFSAYAMTWVRQAPGKGLEWVSAISGTGGSTYYADSVKGRFTISRDNSKNTLYLQMNSLRAEDTAVYYCARVSSGHWDFDYWGQGTLVTVSS VL: DIQMTQSPSSLSASVGDRVTITCRASQSISSYLNWYQQKPGKAPKLLIYAASSLQSGVPSRFSGSGSGTDFTLTISSLQPEDFATYYCQQVYDPPLTFGGGTKVEIK | 5.92 | 17.36 | 0.341
3 | 1.68E−10 | 7.02E−10 | 7.01E−09 | 1.50E−10 | Ab15: monoclonal antibody; VH SEQ ID NO: 245, VL SEQ ID NO: 241 (antibody, V domains shown) VH: EVQLVESGGGVVQPGRSLRLSCAASGFTFSDYAMVWVRQAPGKGLEWVSAISGSGFTTYYADSVKGRFTISRDNSKNTLYLQMNSLRAEDTAVYYCARVSSGHWDFDYWGQGTLVTVSS VL: DIQLTQSPSSLSASVGDRVTITCRASQSISSYLNWYQQKPGKAPKLLIYAASNLQSGVPSRFSGSGSGTDFTLTISSLQPEDFATYYCQQTYTVPLTFGGGTKVEIK | 3.86 | 24.25 | 0.159
4 | 2.68E−10 | 4.55E−10 | 8.33E−10 | 2.25E−10 | Ab21: monoclonal antibody; VH SEQ ID NO: 129, VL SEQ ID NO: 15 (antibody, V domains shown) VH: EVQLVESGGGLVQPGGSLRLSCAASGFTFSSFSMDWVRQAPGKGLEWVSYISPDASTIYYADSVKGRFTISRDNAKNSLYLQMNSLRAEDTAVYYCARGVLDYGDMLDPWGQGTLVTVSS VL: DIQMTQSPSSLSASVGDRVTITCQASQDITNYLNWYQQKPGKAPKLLIYDASNLETGVPSRFSGSGSGTDFTFTISSLQPEDIATYYCQQADNHPPWTFGGGTKVEIK | 0.644 | 2.613 | 0.246
5 | 4.68E−10 | 4.55E−10 | 1.34E−09 | 4.17E−10 | Ab23: monoclonal antibody; VH SEQ ID NO: 131, VL SEQ ID NO: 15 (antibody, V domains shown) VH: EVQLVESGGGLVQPGGSLRLSCAASGFTFSSFSMNWVRQAPGKGLEWVSYISPSADTIYYADSVKGRFTISRDNAKNTLYLQMNSLRAEDTAVYYCARGVLDYGDMLDPWGQGTLVTVSS VL: DIQMTQSPSSLSASVGDRVTITCQASQDITNYLNWYQQKPGKAPKLLIYDASNLETGVPSRFSGSGSGTDFTFTISSLQPEDIATYYCQQADNHPPWTFGGGTKVEIK | 0.897 | 2.028 | 0.443
6 | 3.16E−10 | 4.09E−10 | 7.97E−10 | 3.40E−10 | Ab28: monoclonal antibody; VH SEQ ID NO: 136, VL SEQ ID NO: 15 (antibody, V domains shown) VH: EVQLVESGGGLVQPGGSLRLSCAASGFTFSSFSMDWVRQAPGKGLEWVSYISPDASTIYYADSVKGRFTISRDNAKNSLYLQMNSLRAEDTAVYYCVRGVLDYGDMLDPWGQGTLVTVSS VL: DIQMTQSPSSLSASVGDRVTITCQASQDITNYLNWYQQKPGKAPKLLIYDASNLETGVPSRFSGSGSGTDFTFTISSLQPEDIATYYCQQADNHPPWTFGGGTKVEIK | 0.603 | 1.838 | 0.328
7 | 2.38E−10 | 2.99E−10 | 4.24E−10 | 1.78E−10 | Ab27: monoclonal antibody; VH SEQ ID NO: 135, VL SEQ ID NO: 15 (antibody, V domains shown) VH: EVQLVESGGGLVQPGGSLRLSCAASGFTFSFYAMNWVRQAPGKGLEWVSYISPDASTIYYADSVKGRFTISRDNAKNSLYLQMNSLRAEDTAVYYCARGVLDYGDMLDPWGQGTLVTVSS VL: DIQMTQSPSSLSASVGDRVTITCQASQDITNYLNWYQQKPGKAPKLLIYDASNLETGVPSRFSGSGSGTDFTFTISSLQPEDIATYYCQQADNHPPWTFGGGTKVEIK | 0.361 | 1.738 | 0.208
8 | 1.52E−10 | 4.09E−10 | 4.88E−10 | 2.17E−10 | Ab25: monoclonal antibody; VH SEQ ID NO: 133, VL SEQ ID NO: 15 (antibody, V domains shown) VH: EVQLVESGGGLVQPGGSLRLSCAASGFTFGSFSMDWVRQAPGKGLEWVSYISPDASTIYYADSVKGRFTISRDNAKNSLYLQMNSLRAEDTAVYYCARGVLDYGDMLDPWGQGTLVTVSS VL: DIQMTQSPSSLSASVGDRVTITCQASQDITNYLNWYQQKPGKAPKLLIYDASNLETGVPSRFSGSGSGTDFTFTISSLQPEDIATYYCQQADNHPPWTFGGGTKVEIK | 0.449 | 2.431 | 0.184
